± gives the uncertainty stated by the source.
Assay: amyloid nucleation score (Sup35N fusion, yeast selection) (log enrichment); library NNK3; higher = more nucleation; inactive = no reads after selection
Method in brief: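 Sup35N was fused to peptides of 20 random codons and expressed in psi-negative yeast, which were induced with 100 μM copper sulfate for 24 hours and then grown on medium lacking adenine and uracil for 7 days at 30°C. Plasmid inserts from input and output were sequenced on Illumina. The nucleation score is the DiMSum log enrichment of output over input reads, centred on the mode score of non-aggregating sequences. Sequences with under 100 input reads were left out, and random libraries had three technical output replicates.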

Amyloid nucleation score, 1.52 ± 0.11:
KTYFRHTVRNTSSV

Amyloid nucleation score, 0.904 ± 0.15:
KQSLSMVWRKSDLALKVMVG

Amyloid nucleation score, 0.067 ± 0.31:
KWGSATTCFI

Amyloid nucleation score, 1.84 ± 0.09:
KPVFYGPIRCFISVCI

Amyloid nucleation score, -0.279 ± 0.68:
KYLGMMVKNANMLALCYAGW

Amyloid nucleation score, 1.56 ± 0.08:
KVLVFGFQCFIL

Amyloid nucleation score, 1.51 ± 0.097:
KTKFVTSLNFTVHFKCWNCD

Amyloid nucleation score, 1.25 ± 0.11:
KNLKSVSFGRRYAFNSFVFL

Amyloid nucleation score, 1.08 ± 0.19:
KMTFSWSLHHYCKP

Amyloid nucleation score, -0.406 ± 1:
LCHICDAVTSYLLP

Amyloid nucleation score, inactive:
KNPTILAFSLGVRGETNRCV, KPNFEPSLAW, KQGPWVDTVTVMKTFRMSIN, KQVTVNTLMSPPVRYL, KRDLSVIGKCTLNNVSNHCA, KRFHMYVHGSDMEVLLAGKC, KRGNSANPS, KRLTMDLFDNCPMLYECEFT, KRLVGLYIYTGMWLKLLQLV, KRSNISV, KRTQDCMDRPRMLAAKASPS, KRWTQINYFDWRLLRFATRS, KRYLGLMQRDVWISDAKLSA, KRYMIPKIYERNENYSFEQI, KRYNNIAYFVYLLFSLGVTT, KSASKVGLMKAYRNASRTVI, KSCLGKRLISSFC, KSESEGFNNSIRPWCMFCVS, KSFSHGLFDLRGKRTVEICL, KSGRSCYIFVYMWQLTVYSG, KSLHTGGGLDSRYGS, KSNSSLTRRARYETSTSSSP, KSRTIQECMAATYVSVFECF, KTASRCLYCLMKKKDCLPRV, KTIFSDVFYLRALWCSLNRG, KTISC, KTMDPILQFFERSTASLLLI, KTWYWVFMLAVFRFIYLNMR, KVADSVIEFMLTCWGIRQDS, KVFFVRTIIKVRVAGCSVRV, KVLASCLSHFVDPNLEVSFH, KVSMYRVVWCPASFGVIIVA, KVVARYRRKVCYNWHISEEK, KVYRKKPIGYVECLLSPLKA, KWNNCDF, KWRYLFDMSW, KWSKILAPFILFLKLKSNCS, KYFPVAQYGRIWVRRPRGQV, KYFRARYHSPSEWLWSMIDW, KYLVALVRVRQSNLHS, KYRPLKSCAHVMRDSIKSGC, KYRQIMNGFKFSRANSFVTV, KYVLSKI, KYWICVFFVMIRDPIAYWDD, LADNYVTCKS, LAEGYVSVIRIYKRGWNEDV, LAGTTSASWGGS, LAKCVSVHSIYIHDSICPVG, LALLTAADARD, LALWFRGPLLLLSSLI, LARDYSFATHSGLRRKSLKQ, LARMTCYSDCGSNRGLRRVG, LASPVNETDTLHRALQMLSK, LAWIVCDCIGQCCTFIVRVW, LCALP, LCFNLYMFCSYVCGMAIKSL, LCGDYGV, LCKDLDTSCVGSFYIFRQKG, LCLRSVRLCGKAYSINDRRH, LCVPTSDRELGYRWFRAEWH, LDACILRFARCLEGVDYADK, LDDEVEQSTAASDIRLLSTL, LDEGPPSAWVFATKTNFCES

Amyloid nucleation score, 2.64 ± 0.061:
LCCFCCDPHLR

Amyloid nucleation score, 0.57 ± 0.18:
KSYISVRK

Amyloid nucleation score, -0.463 ± 1.8:
KSNYEGTFGRHVLGPLKNKW

Amyloid nucleation score, 1.64 ± 0.09:
KWSNQGRCEHSVNMFHREWR

Amyloid nucleation score, 0.338 ± 0.38:
KNWYKVMSRYYKC

Amyloid nucleation score, 0.145 ± 0.53:
KVGSKVLEIFINTHYNWYCR

Amyloid nucleation score, 1.32 ± 0.077:
KVIDSLVVSRLLTCASRHIR

From the supplement of paper PMC12042874
